Bridge positions count the residues as written; N and C are the ends. Square brackets hold non-standard residues; d marks the D form. Primed or numbered codes have the meaning given here. Ends that are not written are not given here. * marks the point of attachment. NHBn(CF3)2 = C-terminal amide NH-Bn(CF3)2, a benzyl group carrying two CF3; NH(3,5-(CF3)2-benzyl) = FC(F)(F)c1cc(CN*)cc(C(F)(F)F)c1; OBzl(3,5-(CF3)2) = FC(F)(F)c1cc(CO*)cc(C(F)(F)F)c1; Glc″ = glucosyl on the serine side-chain oxygen; NH‑Bn(CF3)2 = C-terminal Bn(CF3)2 amide; Dmt = Cc1cc(O)cc(C)c1C[C@H](N)C(=O)O; NMe(benzyl) = CN(Cc1ccccc1)*; Nle = CCCC[C@H](N)C(=O)O; NHBn = c1ccc(CN*)cc1; OBn = c1ccc(CO*)cc1
How the values were obtained:
rat NK1 receptor = target: T1, rat NK1 receptor (rat, UniProt P14600 1-407); assay: radioligand competition vs [3H]substance P, membranes of rNK1 CHO cells
T1 construct: whole, on cells; Used as membrane preparations of transfected CHO cells; also called rNK1; rat neurokinin-1 receptor
T1 sequence (P14600 whole entry): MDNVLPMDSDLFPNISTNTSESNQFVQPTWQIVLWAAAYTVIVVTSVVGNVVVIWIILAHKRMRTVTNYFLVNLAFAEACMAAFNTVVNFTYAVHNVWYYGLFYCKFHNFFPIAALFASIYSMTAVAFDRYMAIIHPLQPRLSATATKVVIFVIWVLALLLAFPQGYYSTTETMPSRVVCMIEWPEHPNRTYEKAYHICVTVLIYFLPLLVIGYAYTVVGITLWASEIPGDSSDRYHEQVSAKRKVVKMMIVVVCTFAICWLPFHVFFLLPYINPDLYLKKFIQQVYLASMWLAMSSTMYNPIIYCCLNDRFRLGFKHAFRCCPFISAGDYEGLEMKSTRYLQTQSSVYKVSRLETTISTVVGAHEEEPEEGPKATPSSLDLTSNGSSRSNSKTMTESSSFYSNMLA

[1] = target: µ opioid receptor of the guinea pig isolated ileum (guinea pig, UniProt P97266 1-98); assay: cell-based or functional assay
µ opioid receptor of the guinea pig isolated ileum, sequence (P97266 whole entry): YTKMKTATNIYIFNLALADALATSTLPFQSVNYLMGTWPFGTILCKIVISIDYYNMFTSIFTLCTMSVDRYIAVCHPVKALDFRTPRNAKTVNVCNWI

human δ opioid receptor [2] = target: T2, human δ opioid receptor (human, UniProt P41143 1-372); assay: cell-based or functional assay
T2 sequence (P41143 whole entry, stated change not applied): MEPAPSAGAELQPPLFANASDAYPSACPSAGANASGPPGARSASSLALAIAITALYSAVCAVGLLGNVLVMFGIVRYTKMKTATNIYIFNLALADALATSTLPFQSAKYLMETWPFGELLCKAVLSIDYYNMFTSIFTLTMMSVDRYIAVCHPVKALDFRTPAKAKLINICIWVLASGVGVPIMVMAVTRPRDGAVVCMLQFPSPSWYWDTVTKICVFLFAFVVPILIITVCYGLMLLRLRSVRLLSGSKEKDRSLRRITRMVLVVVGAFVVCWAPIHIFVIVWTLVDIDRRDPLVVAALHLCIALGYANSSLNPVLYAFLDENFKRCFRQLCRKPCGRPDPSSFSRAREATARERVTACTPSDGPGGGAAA

human δ opioid receptor [3] = target: T2, human δ opioid receptor; assay: radioligand competition vs [3H]DPDPE, membranes of hDOR cells
human NK1 receptor = target: T3, human NK1 receptor (human, UniProt P25103 1-407); assay: radioligand competition vs [3H]substance P, membranes of hNK1 CHO cells
T3 construct: whole, on cells; Used as membrane preparations of transfected CHO cells; also called hNK1; human neurokinin-1 receptor
T3 sequence (P25103 whole entry): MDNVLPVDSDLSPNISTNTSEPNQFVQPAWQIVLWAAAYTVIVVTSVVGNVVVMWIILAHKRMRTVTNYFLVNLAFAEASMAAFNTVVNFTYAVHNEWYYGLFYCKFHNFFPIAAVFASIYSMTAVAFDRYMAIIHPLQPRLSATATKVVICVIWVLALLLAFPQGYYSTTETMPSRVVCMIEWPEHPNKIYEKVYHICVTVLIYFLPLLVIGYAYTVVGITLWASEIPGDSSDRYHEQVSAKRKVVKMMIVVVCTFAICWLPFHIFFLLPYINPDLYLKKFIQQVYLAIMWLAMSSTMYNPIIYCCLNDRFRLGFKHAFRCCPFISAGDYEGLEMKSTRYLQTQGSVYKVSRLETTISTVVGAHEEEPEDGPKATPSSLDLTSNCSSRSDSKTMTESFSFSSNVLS

guinea pig NK1 receptor = guinea pig NK1 receptor (guinea pig, UniProt P30547 1-407); assay: cell-based or functional assay
guinea pig NK1 receptor, sequence (P30547 whole entry): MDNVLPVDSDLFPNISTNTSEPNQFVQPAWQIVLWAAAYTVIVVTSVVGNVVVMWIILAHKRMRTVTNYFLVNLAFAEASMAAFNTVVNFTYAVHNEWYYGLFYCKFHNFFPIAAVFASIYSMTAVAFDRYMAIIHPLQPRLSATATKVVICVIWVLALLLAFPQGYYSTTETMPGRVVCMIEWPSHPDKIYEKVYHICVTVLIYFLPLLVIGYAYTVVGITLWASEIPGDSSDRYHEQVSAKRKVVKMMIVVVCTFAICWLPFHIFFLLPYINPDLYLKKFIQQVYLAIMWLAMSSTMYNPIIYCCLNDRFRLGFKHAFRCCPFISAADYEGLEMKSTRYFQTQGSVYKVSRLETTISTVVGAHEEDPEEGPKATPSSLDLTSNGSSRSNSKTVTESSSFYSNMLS

rat µ opioid receptor [4] = target: T4, rat µ opioid receptor (rat, UniProt P33535 1-398); assay: cell-based or functional assay
T4 sequence (P33535 whole entry): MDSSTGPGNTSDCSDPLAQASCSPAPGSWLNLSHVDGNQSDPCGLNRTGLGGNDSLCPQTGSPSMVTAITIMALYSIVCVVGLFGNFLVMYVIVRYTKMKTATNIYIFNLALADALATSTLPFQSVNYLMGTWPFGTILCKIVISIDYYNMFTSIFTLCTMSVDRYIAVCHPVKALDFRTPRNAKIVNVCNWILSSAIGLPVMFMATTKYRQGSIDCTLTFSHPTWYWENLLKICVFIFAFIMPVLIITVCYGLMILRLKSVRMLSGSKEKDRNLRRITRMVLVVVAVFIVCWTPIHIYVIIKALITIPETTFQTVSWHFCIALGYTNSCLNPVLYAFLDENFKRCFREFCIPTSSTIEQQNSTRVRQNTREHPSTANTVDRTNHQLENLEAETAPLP

rat µ opioid receptor [5] = target: T4, rat µ opioid receptor; assay: radioligand competition vs [3H]DAMGO, membranes of rMOR cells

With Y[dA]GFMPLW-{NH(3,5-(CF3)2-benzyl)} [TyrDAlaGlyPheMetProLeuTrpNHBn(CF3)2 (TY027)] the Ki (rat NK1 receptor) was 7.27 nM, the “GPI/LMMP opioid(mu) agonist IC50” value [1] was 488 nM and the “GTP binding hDOR EC50” value (human δ opioid receptor [2]) was 8.6 nM. The “GTP binding hDOR Emax” value (human δ opioid receptor [2]) was 58%.

Work on [Dmt][dA]GFMPLW-{NH(3,5-(CF3)2-benzyl)} [DmtDAlaGlyPheMetProLeuTrpNHBn(CF3)2 (TY032)] yielded a Ki (human δ opioid receptor [3]) of 0.12 nM, a Ki (rat NK1 receptor) of 2.3 nM and a Ki (human NK1 receptor) of 0.008 nM. The “GPI/LMMP SP antagonist Ke” value (guinea pig NK1 receptor) was 7.5 nM, the “GPI/LMMP opioid(mu) agonist IC50” value [1] was 18.6 nM and the “GTP binding rMOR EC50” value (rat µ opioid receptor [4]) was 62 nM. The “GTP binding rMOR Emax” value (rat µ opioid receptor [4]) was 74%, the “GTP binding hDOR EC50” value (human δ opioid receptor [2]) was 1.2 nM and the “GTP binding hDOR Emax” value (human δ opioid receptor [2]) was 24%.

For Y[dA]GFMPLW-OBn [TyrDAlaGlyPheMetProLeuTrpOBn (TY029)], the Ki (rat NK1 receptor) was 20.3 nM, the “GPI/LMMP SP antagonist Ke” value (guinea pig NK1 receptor) was 5.1 nM and the “GPI/LMMP opioid(mu) agonist IC50” value [1] was 22.2 nM. For the same binder, the “GTP binding rMOR Emax” value (rat µ opioid receptor [4]) was 133%, the “GTP binding hDOR EC50” value (human δ opioid receptor [2]) was 3.4 nM and the “GTP binding hDOR Emax” value (human δ opioid receptor [2]) was 98%.

In the case of Y[dA]GFMPLW-NHBn [TyrDAlaGlyPheMetProLeuTrpNHBn (TY025)], the Ki (human δ opioid receptor [3]) is reported as 0.44 nM, the “GPI/LMMP SP antagonist Ke” value (guinea pig NK1 receptor) is reported as 9.9 nM and the “GPI/LMMP opioid(mu) agonist IC50” value [1] is reported as 61.1 nM. For the same binder, the “GTP binding rMOR Emax” value (rat µ opioid receptor [4]) was 46.8%, the “GTP binding hDOR EC50” value (human δ opioid receptor [2]) was 2.6 nM and the “GTP binding hDOR Emax” value (human δ opioid receptor [2]) was 51.7%.

B1: DmtDAlaGlyPheNleProLeuTrpNHBn(CF3)2 (TY050) (peptide)
peptide: YAGFXPLW
modifications: Dmt (2',6'-dimethyl-L-tyrosine) at 1; D-Ala at 2; Nle at 5 (X); C-terminal NH-3,5-Bn(CF3)2 amide
B1 gave a Ki (human NK1 receptor) of 0.075 nM.

YAGFXPLW (D-Ala at 2; Nle at 5 (X); C-terminal NH-Bn(CF3)2 amide) [TyrDAlaGlyPheNleProLeuTrpNHBn(CF3)2 (TY045)] was tested, and the Ki (human δ opioid receptor [3]) was 1 nM, the Ki (human NK1 receptor) was 0.0028 nM and the “GPI/LMMP SP antagonist Ke” value (guinea pig NK1 receptor) was 40.8 nM. The “GPI/LMMP opioid(mu) agonist IC50” value [1] was 463 nM, the “GTP binding hDOR EC50” value (human δ opioid receptor [2]) was 5 nM and the “GTP binding hDOR Emax” value (human δ opioid receptor [2]) was 125%.

Y[dA]GFM-NH2 [TyrDAlaGlyPheMetNH2 (TY040)] gave a Ki (rat NK1 receptor) of 1100 nM and a Ki (human NK1 receptor) of 145 nM.

For Y[dA]GFMPLW-{NMe(benzyl)} [TyrDAlaGlyPheMetProLeuTrpNMeBn (TY026)], the Ki (human δ opioid receptor [3]) was 0.32 nM, the Ki (rat NK1 receptor) was 44.5 nM and the “GTP binding hDOR EC50” value (human δ opioid receptor [2]) was 8.9 nM. The “GTP binding hDOR Emax” value (human δ opioid receptor [2]) was 93%.

In the case of Y[dA]GFPLW-{OBzl(3,5-(CF3)2)} [TyrDAlaGlyPheProLeuTrpOBn(CF3)2 (TY001)], the Ki (human NK1 receptor) is reported as 0.0023 nM.

[Dmt][dA]GFMPLW-{OBzl(3,5-(CF3)2)} [DmtDAlaGlyPheMetProLeuTrpOBn(CF3)2 (TY033)] gave a Ki (human δ opioid receptor [3]) of 0.22 nM, a Ki (rat NK1 receptor) of 0.96 nM and a Ki (human NK1 receptor) of 1.2 nM. For the same binder, the “GPI/LMMP SP antagonist Ke” value (guinea pig NK1 receptor) was 24.5 nM, the “GPI/LMMP opioid(mu) agonist IC50” value [1] was 100 nM and the “GTP binding hDOR EC50” value (human δ opioid receptor [2]) was 0.73 nM. For the same binder, the “GTP binding hDOR Emax” value (human δ opioid receptor [2]) was 200%.

For YAGFXPLW (D-Ala at 2; Nle (norleucine) at 5 (X); C-terminal O-3,5-Bn(CF3)2 ester) [TyrDAlaGlyPheNleProLeuTrpOBn(CF3)2 (TY018)], the Ki (human δ opioid receptor [3]) was 1.8 nM, the Ki (human NK1 receptor) was 0.14 nM and the “GPI/LMMP SP antagonist Ke” value (guinea pig NK1 receptor) was 7.93 nM. The “GPI/LMMP opioid(mu) agonist IC50” value [1] was 372 nM, the “GTP binding hDOR EC50” value (human δ opioid receptor [2]) was 4 nM and the “GTP binding hDOR Emax” value (human δ opioid receptor [2]) was 131%.

For Y[dA]GF[Nle]S(Glc″)LW-{NH‑Bn(CF3)2} [TyrDAlaGlyPheNleSer(OGlu)LeuTrpNHBn(CF3)2 (TY044)], the Ki (human NK1 receptor) was 1.3 nM, the “GTP binding rMOR EC50” value (rat µ opioid receptor [4]) was 380 nM and the “GTP binding rMOR Emax” value (rat µ opioid receptor [4]) was 85%. It also gave a Ki (rat µ opioid receptor [5]) of 3370 nM.

With MPLW-{NHBn(CF3)2} [MetProLeuTrpNHBn(CF3)2 (TY051)] the Ki (rat NK1 receptor) was 62 nM, the Ki (human NK1 receptor) was 0.922 nM and the Ki (rat µ opioid receptor [5]) was 866 nM.

With Y[dA]GFMPLW-{OBzl(3,5-(CF3)2)} [TyrDAlaGlyPheMetProLeuTrpOBn(CF3)2 (TY005)] the Ki (human δ opioid receptor [3]) was 2.8 nM, the Ki (rat NK1 receptor) was 0.29 nM and the “GPI/LMMP SP antagonist Ke” value (guinea pig NK1 receptor) was 24.7 nM. The “GPI/LMMP opioid(mu) agonist IC50” value [1] was 359 nM, the “GTP binding rMOR Emax” value (rat µ opioid receptor [4]) was 45.6% and the “GTP binding hDOR EC50” value (human δ opioid receptor [2]) was 2.9 nM. The “GTP binding hDOR Emax” value (human δ opioid receptor [2]) was 47.6%.

For Y[dC]GFCPLW-{NH(3,5-(CF3)2-benzyl)} (disulfide 2-5, also called [D-Cys2, Cys5]) [Tyr[DCysGlyPheCys]ProLeuTrpNHBn(CF3)2 (TY039)], the Ki (human δ opioid receptor [3]) was 10.7 nM, the Ki (rat NK1 receptor) was 556 nM and the “GPI/LMMP SP antagonist Ke” value (guinea pig NK1 receptor) was 434 nM. The “GPI/LMMP opioid(mu) agonist IC50” value [1] was 10.1 % at 1 uM, the “GTP binding rMOR EC50” value (rat µ opioid receptor [4]) was 118 nM and the “GTP binding rMOR Emax” value (rat µ opioid receptor [4]) was 20%. The “GTP binding hDOR EC50” value (human δ opioid receptor [2]) was 50.9 nM and the “GTP binding hDOR Emax” value (human δ opioid receptor [2]) was 37%.

With Y[dA]GFMALW-{OBzl(3,5-(CF3)2)} [TyrDAlaGlyPheMetAlaLeuTrpOBn(CF3)2 (TY020)] the “GTP binding rMOR Emax” value (rat µ opioid receptor [4]) was 51.4% and the “GTP binding hDOR Emax” value (human δ opioid receptor [2]) was 26.4%.

— patent US8026218 (UNIVERSITY OF ARIZONA, dated 2011)
